From patent US20190256595A1 (INSTITUT NATIONAL DE LA SANT ET DE LA RECHERCH M DICAL …, published 2019) come the findings set out here.

For assay [1], the target named is T1, Flag-tagged CD160-TM isoform expressed on HEK cells (human).
T1 construct: In the immunoprecipitation the protein came from a 1% NP40 lysate of these cells; Bands were read as mono-, di- and quadrimeric forms; also called HEK-CD160TM; Flag-tagged CD160TM receptor; not shown: Flag tag
T1 chain: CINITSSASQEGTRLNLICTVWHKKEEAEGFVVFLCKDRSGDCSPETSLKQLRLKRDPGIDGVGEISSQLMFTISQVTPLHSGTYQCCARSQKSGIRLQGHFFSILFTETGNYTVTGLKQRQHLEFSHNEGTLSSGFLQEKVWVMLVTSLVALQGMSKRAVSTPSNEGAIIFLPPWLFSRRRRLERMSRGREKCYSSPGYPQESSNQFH
In words: flow cytometry on HEK-CD160TM cells. The procedure:
(§1) CHO and HEK transfected cells were labelled with the anti-CD160-GPI mAb CL1-R2 or BY55, the fully human A12 or B6 antibody or their corresponding isotypic control IgG. […] Cell acquisition was performed on a CytoFlex cytometer and results were analysed with FlowJo software.
(§2) After selection on HEK-CD160TM cells, A12 and B6 specificity for CD160TM isoform was first verified by flow cytometry on both CD160-GPI and CD160TM expressing transfectants. As shown on FIG. 1, a positive labelling was obtained with A12 and B6 antibodies on HEK-CD160TM cells but not on CHO-CD160-GPI cells. Conversely, the anti-CD160-GPI mAb CL1-R2 or BY55 gave a positive labelling only on CD160-GPI-expressing cells, ruling out the possibility that A12 and B6 negativity was linked to the non-expression of CD160-GPI on CHO transfectants.
On the technique in general: In flow cytometry, cells or beads pass a laser one at a time.

Assay [2] addresses T2, CD160 GPI-anchored isoform expressed on CHO cells (human, UniProt O95971 26-160, GPI anchor at the C terminus end).
T2 construct: also called CHO-CD160-GPI
T2 sequence: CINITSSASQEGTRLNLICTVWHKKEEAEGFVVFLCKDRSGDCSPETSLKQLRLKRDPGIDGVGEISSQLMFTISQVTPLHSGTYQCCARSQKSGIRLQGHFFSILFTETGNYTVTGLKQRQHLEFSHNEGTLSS
The assay is described as follows: flow cytometry on CHO-CD160-GPI cells. The procedure:
as §1, §2

Assay [3] addresses T3, recombinant soluble CD160-His Tag (human, UniProt O95971 26-160).
T3 construct: also called sCD160; CD160 soluble isoform; not shown: His tag
T3 sequence: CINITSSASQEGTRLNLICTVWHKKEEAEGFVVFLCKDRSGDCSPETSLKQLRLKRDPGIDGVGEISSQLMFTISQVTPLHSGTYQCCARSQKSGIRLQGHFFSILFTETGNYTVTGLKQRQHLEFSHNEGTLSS
In words: sandwich ELISA: coated antibody, soluble CD160-His, anti-His-HRP. Here is the method: FIG. 4: sCD160 is recognized by the antibodies CL1-R2, R&D 6700 and RB312 but not A12. 1 ug per well of antibody was coated overnight on a 96 well maxisorb plate. After saturation with PBS-5%BSA, lOng of recombinant soluble CD160-His Tag were added to each well and incubated 2h at room temperature. After washing, revelation was done with anti-His-HRP then TMB substrate.
A general note: ELISA stands for enzyme-linked immunosorbent assay.

Assay [4] deals with T4, CD160-TM isoform (CD160 transmembrane isoform) (human).
T4 chain: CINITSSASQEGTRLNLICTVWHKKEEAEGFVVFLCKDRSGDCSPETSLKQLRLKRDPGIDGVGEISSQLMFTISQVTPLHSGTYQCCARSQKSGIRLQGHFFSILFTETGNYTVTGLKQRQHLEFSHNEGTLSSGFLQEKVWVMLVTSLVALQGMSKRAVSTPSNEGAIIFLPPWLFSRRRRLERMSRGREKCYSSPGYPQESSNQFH
The assay is described as follows: flow cytometry on IL2-activated human PBMC, gated CD3-CD56+ NK cells. The procedure: as §1
For PBMC, CD160 labelling was performed as above. Following washes and addition of normal mouse serum, cells were incubated with a mix of CD8-FITC, CD56-PCS, CD3-APC and CD4-PC7 mAbs. After cell acquisition, analyses were performed to distinguish the CD3⁺CD4⁺ and CD3⁺CD8⁺ T lymphocytes, and the CD3⁻CD56⁺ NK cells within the lymphocytes population.

Assay [5] concerns the target T1, Flag-tagged CD160-TM isoform expressed …. The assay is described as follows: immunoprecipitation from HEK-CD160TM lysate, anti-Flag Western blot, non-reducing. Here is the method:
FIG. 3: Assessment of A12 specificity by immunoprecipitation. Post-nuclear lysates were prepared from HEK-CD160TM cells and subjected to immunoprecipitation with either mouse (mu IgG) or human (hu Ig) isotypic control IgG, chimeric murine A12 (mu A12) or fully human A12 (hu A12) antibody. […] Arrows indicate CD160TM-related signals.
HEK-CD160TM cells, that express a Flag-tagged version of CD160TM isoform, were lysed in 1% NP40 lysis buffer. Post-nuclear lysates were prepared and subjected to immuno-precipitation with the fully human A12 antibody or mouse chimeric A12. Human and mouse IgG were used as negative controls, respectively. Immune complexes were further collected with protein G Sepharose beads. Following washes, non-reducing sample buffer (devoid of reducing agent) was added and samples were finally heat-denatured. Proteins were separated by SDS-10% PAGE, electrically transferred on a nitrocellulose membrane and subjected to immuno-blotting with and anti-Flag mAb plus HRP-coupled goat anti-mouse IgGs. Revelation was performed by enhanced chemiluminescence and images acquired with an ImageQuant LAS device.
A general note: In western blotting, separated proteins are transferred to a membrane and probed.

In assay [6] the target is T3, recombinant soluble CD160-His Tag. In words: sandwich ELISA: coated antibody, soluble CD160-His, anti-His-HRP (data not shown).

B1: A12 antibody (fully human A12 antibody) (antibody, human IgG1, V domains shown)
VH: EVQLVESGGSLVKPGGSLRLSCAASGFTFSNYSMNWVRQAPGKGLEWISYIYGSSRYISYADFVKGRFTISRDNATNSLYLQMNSLRAEDTAVYYCVRSYYGGMDVWGRGTLVTVSS
VL: QSVLTQPASVSGSPGQSITISCAGTSSDVGGYYGVSWYQQHPGKAPKLMIYYDSYRPSGVSNRFSGSKSGNTASLTISGLQAEDEADYYCSSSTYYSTRVFGGGTKLEK
notes: Fully human aglycosylated antibody selected by phage display on HEK-CD160TM cells; also called hu A12
For B1, the binding result in assay [1] is “binds”; in assay [2], “no binding”; in assay [3], “no binding”; in assay [4] it was “binds”.

B2: murine chimeric version of A12 antibody (antibody, V domains shown)
VH: EVQLVESGGSLVKPGGSLRLSCAASGFTFSNYSMNWVRQAPGKGLEWISYIYGSSRYISYADFVKGRFTISRDNATNSLYLQMNSLRAEDTAVYYCVRSYYGGMDVWGRGTLVTVSS
VL: QSVLTQPASVSGSPGQSITISCAGTSSDVGGYYGVSWYQQHPGKAPKLMIYYDSYRPSGVSNRFSGSKSGNTASLTISGLQAEDEADYYCSSSTYYSTRVFGGGTKLEK
notes: also called muA12; mu A12
For B2, the binding result in assay [5] is “binds”.

B3: B6 antibody (fully human B6 antibody) (antibody, human IgG1, V domains shown)
VH: EVQLVESGGSLVKPGGSLRLSCAASGFTFSNYYMNWVRQAPGKGLEWISGIYGSSRYINYADFVKGRFTISRDNATNSLYLQMNSLRAEDTAVYYCVRSYYGGMDVWGRGTLVTVSS
VL: QSVLTQPASVSGSPGQSITISCAGTSSDVGGYSYVSWYQQHPGKAPKLMIYYDSYRPSGVSNRFSGSKSGNTASLTISGLQAEDEADYYCSSYTYYSTRVFGGGTKLEK
notes: From the same phage display selection as A12
For B3, the binding result in assay [6] was “no binding”; in assay [1], “binds”; in assay [2], “no binding”.
